± gives the uncertainty stated by the source.
B1: Zinc finger MYM-type protein 2, residues 463 to 506; numbered along this chain, Q9UBW7 (parent)
chain: IMNCCEQCGEYLPSKGAGNNVLVIDGQQKRFCCQSCVSEYKQVG
B2: Transcription intermediary factor 1-beta, residues 620 to 671; numbered along this chain, Q13263 (parent)
chain: TLDDSATICRVCQKPGDLVMCNQCEFCFHLDCHLPALQDVPGEEWSCSLCHV

Variants of: B1
Test: abundance fitness (aPCA) (normalised: wild type 0, dead -1); higher = more abundant; growth selection in yeast, the domain comes from the species named
Settings: Homo sapiens

Row | Variant | abundance fitness
1 | C5W | -1.5 ± 0.12
2 | C5H | -0.641 ± 0.31
3 | C5V | -0.884 ± 0.094
4 | C5D | -0.637 ± 0.099
5 | C5S | -0.524 ± 0.11
6 | C5E | -0.377 ± 0.11
7 | C5T | -0.587 ± 0.13
8 | C5M | -0.979 ± 0.35
9 | C5G | -0.7 ± 0.068

Variants of: B2
Test: as above
Settings: Homo sapiens

Row | Variant | abundance fitness
10 | S46I | -0.01 ± 0.12
11 | S46C | -0.116 ± 0.091
12 | S46M | 0.082 ± 0.1
13 | S46V | 0.059 ± 0.072
14 | R10C | -0.363 ± 0.16
15 | R10P | -0.301 ± 0.13
16 | R10A | -0.327 ± 0.12
17 | A6C | -0.973 ± 0.21
18 | A6V | -0.35 ± 0.08
19 | A6E | 0.25 ± 0.12
20 | A6H | -0.303 ± 0.17
21 | V19N | -0.556 ± 0.34
22 | V19P | -0.943 ± 0.33
23 | V19H | 0.116 ± 0.3
24 | V19T | -0.314 ± 0.16
25 | F28K | -0.427 ± 0.23
26 | S5R | -0.064 ± 0.077
27 | S5L | -0.596 ± 0.12
28 | L2H | -0.678 ± 0.4
29 | L2C | -0.198 ± 0.18
30 | L2W | -0.323 ± 0.13
31 | Q13N | 0.128 ± 0.17
32 | Q13C | 0.091 ± 0.13

Row | Variant | abundance fitness
33 | Q13M | -0.002 ± 0.1
34 | L30I | -0.479 ± 0.22
35 | L30Q | -0.432 ± 0.27
36 | L30H | -0.194 ± 0.19
37 | I8P | -0.302 ± 0.13
38 | I8D | -0.51 ± 0.13
39 | I8W | -0.348 ± 0.11
40 | I8G | -0.418 ± 0.078
41 | I8Y | 0.077 ± 0.12
42 | I8V | -0.095 ± 0.081
43 | E43D | 0.088 ± 0.17
44 | E43C | -0.129 ± 0.12
45 | E43I | -0.092 ± 0.14
46 | E43W | -0.2 ± 0.1
47 | L34I | -0.305 ± 0.17
48 | L34Y | 0.062 ± 0.15
49 | L34S | 0.283 ± 0.093
50 | T1M | -0.363 ± 0.32
51 | T1K | 0.109 ± 0.24
52 | T1W | -0.8 ± 0.33
53 | D3V | -0.487 ± 0.1
54 | D3C | -0.534 ± 0.17
55 | D3T | -0.661 ± 0.15

Row | Variant | abundance fitness
56 | D3S | -0.223 ± 0.11
57 | D3G | -0.411 ± 0.099
58 | V11Q | -0.136 ± 0.12
59 | V11W | -0.409 ± 0.1
60 | C32N | -0.528 ± 0.25
61 | C32S | -0.507 ± 0.13
62 | H33T | -0.235 ± 0.14
63 | H29E | -0.919 ± 0.23
64 | H29D | -0.883 ± 0.29
65 | H29C | -0.67 ± 0.2
66 | H29F | -0.864 ± 0.27
67 | C9G | -0.931 ± 0.11
68 | C9T | -0.926 ± 0.23
69 | M20F | -0.192 ± 0.15
70 | M20W | -0.73 ± 0.14
71 | M20I | -0.379 ± 0.2
72 | E44G | -0.042 ± 0.11
73 | E44F | -0.412 ± 0.2
74 | E44Y | -0.143 ± 0.23
75 | E44N | -0.16 ± 0.2
76 | E44A | -0.226 ± 0.11
77 | P15H | -0.132 ± 0.22
78 | P15D | -0.233 ± 0.2

Row | Variant | abundance fitness
79 | P15F | -0.787 ± 0.27
80 | P15K | -0.193 ± 0.2
81 | W45D | -0.506 ± 0.14
82 | W45C | -0.283 ± 0.11
83 | W45F | -0.342 ± 0.16
84 | W45N | -0.377 ± 0.3
85 | C21V | -0.826 ± 0.11
86 | C21L | -0.837 ± 0.13
87 | C21S | -0.968 ± 0.15
88 | C21M | -1.24 ± 0.35
89 | L18Q | -0.483 ± 0.3
90 | L18S | -0.789 ± 0.15
91 | L18N | -0.662 ± 0.23
92 | L18C | -0.317 ± 0.15
93 | L18I | -0.371 ± 0.15
94 | L18F | -0.697 ± 0.25
95 | D31W | -0.921 ± 0.32
96 | D31E | -0.202 ± 0.14
97 | G42F | -0.161 ± 0.22
98 | G42Q | -0.028 ± 0.22
99 | G42P | -0.085 ± 0.13
100 | G42K | 0.095 ± 0.16
101 | D17Y | -0.512 ± 0.17

Row | Variant | abundance fitness
102 | D17H | 0.01 ± 0.15
103 | D17E | -0.119 ± 0.16
104 | D17K | -0.018 ± 0.16
105 | D17P | -0.604 ± 0.15
106 | D17N | -0.256 ± 0.2
107 | V52H | -0.479 ± 0.44
108 | V52C | -0.289 ± 0.31
109 | V52L | -0.369 ± 0.17
110 | V52I | -0.354 ± 0.13
111 | Q23M | -0.371 ± 0.16
112 | Q23K | -0.113 ± 0.21
113 | N22L | -0.561 ± 0.11
114 | N22C | -0.092 ± 0.22
115 | S48Q | -0.234 ± 0.18
116 | S48R | 0.105 ± 0.087
117 | S48W | 0.057 ± 0.13
118 | S48P | 0.152 ± 0.12
119 | L37S | -0.071 ± 0.11
120 | L37Y | -0.27 ± 0.18
121 | L37V | -0.094 ± 0.096
122 | D39H | -0.268 ± 0.21
123 | D39A | -0.175 ± 0.16
124 | D39M | -0.24 ± 0.14

Row | Variant | abundance fitness
125 | D39T | -0.089 ± 0.19
126 | Q38A | -0.02 ± 0.1
127 | Q38M | -0.443 ± 0.15
128 | Q38T | -0.345 ± 0.13
129 | Q38H | -0.279 ± 0.2
130 | Q38I | 0.079 ± 0.15
131 | H51W | -0.345 ± 0.19
132 | C50A | -0.112 ± 0.096
133 | C50R | -0.214 ± 0.11
134 | C50S | -0.462 ± 0.12
135 | C50P | 0.037 ± 0.15
136 | C50Q | -0.329 ± 0.16
137 | C50L | -0.797 ± 0.11
138 | T7A | -0.123 ± 0.098
139 | T7M | -0.143 ± 0.15
140 | T7R | 0.077 ± 0.11
141 | T7Y | 0.007 ± 0.15
142 | T7Q | -0.118 ± 0.27
143 | P35F | -0.637 ± 0.17
144 | P35D | -0.447 ± 0.14
145 | P35W | -0.799 ± 0.14
146 | P41I | -0.302 ± 0.18
147 | P41R | -0.26 ± 0.096

Row | Variant | abundance fitness
148 | P41S | -0.374 ± 0.14
149 | P41Q | -0.204 ± 0.17
150 | C47V | -0.807 ± 0.089
151 | C47H | -0.572 ± 0.14
152 | C47Y | -0.736 ± 0.17
153 | C47W | -0.951 ± 0.11
154 | A36T | -0.161 ± 0.17
155 | A36I | -0.449 ± 0.19
156 | E25R | -0.136 ± 0.12
157 | E25L | -0.134 ± 0.1
158 | E25A | -0.227 ± 0.12
159 | E25V | -0.493 ± 0.11
160 | F26H | -0.374 ± 0.21
161 | F26D | -0.034 ± 0.22
162 | F26I | -0.812 ± 0.34
163 | F26T | -0.563 ± 0.17
164 | D4S | 0.016 ± 0.086
165 | V40W | -0.101 ± 0.14
166 | V40S | -0.121 ± 0.11
167 | V40C | -0.401 ± 0.17
